Results as given in patent US20230118302 (published 2023).
Like-named read-outs stand apart in the source and are kept apart here.

How the values were obtained:
HER2 on cells [1] = molecular target: T1, HER2 on cells (human, UniProt P04626); experiment: FACS, MCF7
HER2 on cells [2] = molecular target: T1, HER2 on cells; experiment: FACS, WI-38
HER2 on cells [3] = molecular target: T1, HER2 on cells; experiment: FACS, MCF7; remark: listed apart in the source
CD16a V158 = CD16a V158 (human, UniProt P08637); experiment: SPR
Chain of CD16a V158 (P08637 17-208 F176V): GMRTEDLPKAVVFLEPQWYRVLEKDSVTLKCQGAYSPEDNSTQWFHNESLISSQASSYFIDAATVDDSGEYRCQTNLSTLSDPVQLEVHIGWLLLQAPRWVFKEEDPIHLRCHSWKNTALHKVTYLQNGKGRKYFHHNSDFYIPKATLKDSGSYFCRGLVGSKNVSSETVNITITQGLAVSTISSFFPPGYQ

HER2 ECD [4] = molecular target: T2, HER2 ECD (human, UniProt P04626); experiment: SPR
HER2 ECD [5] = molecular target: T2, HER2 ECD; experiment: SPR; remark: listed apart in the source

B1: v10000 (antibody)
chain 1: EVQLVESGGGLVQPGGSLRLSCAASGFTFADYTMDWVRQAPGKGLEWVGDVNPNSGGSIYNQRFKGRFTFSVDRSKNTLYLQMNSLRAEDTAVYYCARNLGPSFYFDYWGQGTLVTVSSASTKGPSVFPLAPSSKSTSGGTAALGCLVKDYFPEPVTVSWNSGALTSGVHTFPAVLQSSGLYSLSSVVTVPSSSLGTQTYICNVNHKPSNTKVDKKVEPKSCDKTHTCPPCPAPELLGGPSVFLFPPKPKDTLMISRTPEVTCVVVDVSHEDPEVKFNWYVDGVEVHNAKTKPREEQYNSTYRVVSVLTVLHQDWLNGKEYKCKVSNKALPAPIEKTISKAKGQPREPQVYVYPPSRDELTKNQVSLTCLVKGFYPSDIAVEWESNGQPENNYKTTPPVLDSDGSFALVSKLTVDKSRWQQGNVFSCSVMHEALHNHYTQKSLSLSPG
chain 2: not shown
chain 3: not shown
Kd (HER2 on cells [1]): 3.7 nM
Kd (HER2 on cells [2]): 8.4 nM
Kd (HER2 on cells [3]): 6.8 nM

B2: v7091 (antibody)
chain 1: EVQLVESGGGLVQPGGSLRLSCAASGFTFTDYTMDWVRQAPGKGLEWVADVNPNSGGSIYNQRFKGRFTLSVDRSKNTLYLQMNSLRAEDTAVYYCARNLGPSFYFDYWGQGTLVTVSSASTKGPSVFPLAPSSKSTSGGTAALGCLVKDYFPEPVTVSWNSGALTSGVHTFPAVLQSSGLYSLSSVVTVPSSSLGTQTYICNVNHKPSNTKVDKKVEPKSCDKTHTCPPCPAPELLGGPSVFLFPPKPKDTLMISRTPEVTCVVVDVSHEDPEVKFNWYVDGVEVHNAKTKPREEQYNSTYRVVSVLTVLHQDWLNGKEYKCKVSNKALPAPIEKTISKAKGQPREPQVYVYPPSRDELTKNQVSLTCLVKGFYPSDIAVEWESNGQPENNYKTTPPVLDSDGSFALVSKLTVDKSRWQQGNVFSCSVMHEALHNHYTQKSLSLSPG
chain 2: not shown
chain 3: not shown
Kd (CD16a V158): 120 nM

B3: v7148 (antibody)
chain 1: EVQLVESGGGLVQPGGSLRLSCAASGFTFTDYTMDWVRQAPGKGLEWVADVNPNSGGSIYNQRFKGRFTLSVDRSKNTLYLQMNSLRAEDTAVYYCARNLGPSFYFDYWGQGTLVTVSSASTKGPSVFPLAPSSKSTSGGTAALGCLVKDYFPEPVTVSWNSGALTSGVHTFPAVLQSSGLYSLSSVVTVPSSSLGTQTYICNVNHKPSNTKVDKKVEPKSCDKTHTCPPCPAPELLGGPSVFLFPPKPKDTLMISRTPEVTCVVVDVSHEDPEVKFNWYVDGVEVHNAKTKPREEQYNSTYRVVSVLTVLHQDWLNGKEYKCKVSNKALPAPIEKTISKAKGQPREPQVYVYPPSRDELTKNQVSLTCLVKGFYPSDIAVEWESNGQPENNYKTTPPVLDSDGSFALVSKLTVDKSRWQQGNVFSCSVMHEALHNHYTQKSLSLSPG
chain 2: not shown
chain 3: not shown
modifications: v7091 conjugated to SMCC-DM1
Kd (CD16a V158): 120 nM

B4: v10014 (antibody, V domains shown)
VH: EVQLVESGGGLVQPGGSLRLSCAASGFTFADYTMDWVRQAPGKGLEWVADVNPNSGGSIYNQRFKGRFTLSVDRSKNTLYLQMNSLRAEDTAVYYCARNLGPSFYFDYWGQGTLVTVSS
VL: DIQMTQSPSSLSASVGDRVTITCKASQDVSIGVAWYQQKPGKAPKLLIYSASYRYTGVPSRFSGSGSGTDFTLTISSLQPEDFATYYCQQYYIYPATFGQGTKVEIK
Kd (HER2 ECD [4]): 2 nM
Kd (HER2 ECD [5]): 2.1 nM
